This note sets out measurements from patent US20250283153 (published 2025).

The series has as its target Thrombin (human alpha-thrombin) (Homo sapiens, UniProt P00734;P00734 P00734:328-363,P00734:364-622). Briefly: nanopore without motor protein; lower-current events with increasing thrombin concentration.

B1: 29-mer thrombin-binding aptamer (TBA) with 30xT threading strand (ssDNA)
DNA: TTTTTTTTTTTTTTTTTTTTTTTTTTTTTTAGTCCGTGGTAGGGCAGGTTGGGGTGACT
With B1, the binding result was “binds”.
